In the supplement of paper PMC10201428:
± gives the standard deviation of the averaged measurements.

What was measured:
[1] = system: VchCAST RNA-guided transposition machinery (E. coli BL21(DE3) host, lacZ target); test: relative integration efficiency (T-LR orientation) vs wild-type transposon end (log2 (normalized fold change)); transposon end mutated: right end (5 bp flank + 75 bp right end); higher = more efficient transposition
In short: (§1)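 Each barcoded pool, 1549 left-end or 1849 right-end transposon variants in a pUC57 mini-transposon donor, went into E. coli BL21(DE3) with a T7-driven effector plasmid (CRISPR array, tniQ-cas8-cas7-cas6, tnsA-tnsB-tnsC). Plates contained 0.1 mM IPTG and were held at 37°C for 18 h. Input plasmids and genomic integration junctions were PCR-amplified and read by Illumina sequencing, with two biological output replicates and four reference barcodes. Relative integration efficiency is the fold change of output over input barcode abundance, normalised to the reference barcodes and log-transformed.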

[2] = system: VchCAST RNA-guided transposition machinery (E. coli BL21(DE3) host, lacZ target); test: relative integration efficiency (T-RL orientation) vs wild-type transposon end (log2 (normalized fold change)); transposon end mutated: right end (5 bp flank + 75 bp right end); higher = more efficient transposition
In short: as §1

Sequence | relative integration efficiency (log2) [1] | relative integration efficiency (log2) [2]
ACATTTGTTGATACAACCATAAAATGATAATTACACCCATAAATTGATAATTATCACACCCATAAATTGATATTGCCTCTGATCATTTACTTTTGGTTACATATTTAGTCAGACCAAGCACCGACAC | 0.713 ± 0.049 | 0.0213 ± 0.19
ACATTTGTTGATACAACCATAAAATGATAATTACACCCATAAATTGATAATTATCACACCCATAAATTGATATTGCCTCTGATCATTTGCATAAAAATTCATCTAGTCAGACCAACAGCACCGACAC | -0.0028 ± 0.22 | -0.15 ± 0.36
ACATTTGTTGATACAACCATAAAATGATAATTACACCCATAAATTGATAATTATCACACCCATAAATTGATATTGCCTCTGATCCAACCATAAAATGATAATTAATAGTCAGACCAAGCACCGACAC | 0.046 ± 0.066 | 0.156 ± 0.25
ACATTTGTTGATACAACCATAAAATGATAATTACACCCATAAATTGATAATTATCACACCCATAAATTGATATTGCCTCTGATCGTTTTAAGGATGACTTCAGTCGCGCCGTACTTCGCACCGACAC | -0.209 ± 0.13 | -0.207 ± 0.2
ACATTTGTTGATACAACCATAAAATGATAATTACACCCATAAATTGATAATTATCACACCCATAAATTGATATTGCCTCTGCAACCATAAAATGATAATTAATCATAGTCAGACCAAGCACCGACAC | -0.129 ± 0.36 | -0.336 ± 0.3
ACATTTGTTGATACAACCATAAAATGATAATTACACCCATAAATTGATAATTATCACACCCATAAATTGATATTGCCTCTGGCGCTCTGTACCCCGCTCGGTCCTCCCGCGCATCGCGCACCGACAC | -0.0593 ± 0.17 | 0.194 ± 0.14
ACATTTGTTGATACAACCATAAAATGATAATTACACCCATAAATTGATAATTATCACACCCATAAATTGATATTGCCTCTGGCTAGCACTATACCTAGGACTGAGCTAGCCGTCAACGCACCGACAC | 0.877 ± 0.31 | -4.7 ± 0.55
ACATTTGTTGATACAACCATAAAATGATAATTACACCCATAAATTGATAATTATCACACCCATAAATTGATATTGCCTCTGGCTAGCATTATACCTAGGACTGAGCTAGCTGTCAACGCACCGACAC | 1.91 ± 0.064 | -2.99 ± 0.27
ACATTTGTTGATACAACCATAAAATGATAATTACACCCATAAATTGATAATTATCACACCCATAAATTGATATTGCCTCTGGCTAGCATTGTACCTAGGACTGAGCTAGCCATAAACGCACCGACAC | 0.293 ± 0.3 | -0.0442 ± 0.11
ACATTTGTTGATACAACCATAAAATGATAATTACACCCATAAATTGATAATTATCACACCCATAAATTGATATTGCCTCTGTACCGTTCGTATAATGTATGCTATACCAAGTTATTCGCACCGACAC | -0.0326 ± 0.059 | -0.351 ± 0.19
ACATTTGTTGATACAACCATAAAATGATAATTACACCCATAAATTGATAATTATCACACCCATAAATTGATATTGCCTCTGTACCGTTCGTATACGATACATTATACGAAGTTATTCGCACCGACAC | 1.66 ± 0.14 | -1.24 ± 0.29
ACATTTGTTGATACAACCATAAAATGATAATTACACCCATAAATTGATAATTATCACACCCATAAATTGATATTGCCTCTGTACGATCCAGTGATCTCCAAGACGCTGCAAGAGTCCGCACCGACAC | -0.117 ± 0.38 | 0.0556 ± 0.23
ACATTTGTTGATACAACCATAAAATGATAATTACACCCATAAATTGATAATTATCACACCCATAAATTGATATTGCCTCTGTTGACAGCTAGCTCAGTCCTAGGTATAATGCTAGCCGCACCGACAC | 0.147 ± 0.2 | -0.0954 ± 0.038
ACATTTGTTGATACAACCATAAAATGATAATTACACCCATAAATTGATAATTATCACACCCATAAATTGATATTGCCTCTGTTGACGGCTAGCTCAGTCCTAGGTATAGTGCTAGCCGCACCGACAC | -0.517 ± 0.3 | -0.43 ± 0.065
ACATTTGTTGATACAACCATAAAATGATAATTACACCCATAAATTGATAATTATCACACCCATAAATTGATATTGCCTCTGTTGGCGCCCGGCCCTCAGGCCCTGCAGTGAGTTCCAGCACCGACAC | 0.0708 ± 0.019 | 0.121 ± 0.15
ACATTTGTTGATACAACCATAAAATGATAATTACACCCATAAATTGATAATTATCACACCCATAAATTGATATTGCCTCTGTTTATGGCTAGCTCAGTCCTAGGTACAATGCTAGCCGCACCGACAC | -0.0571 ± 0.23 | -0.0948 ± 0.31
ACATTTGTTGATACAACCATAAAATGATAATTACACCCATAAATTGATAATTATCACACCCATAAATTGATATTGCCTCTTAACACCCGTATTACTTCATAATCGTTTGTAATTCAAGCACCGACAC | 1.41 ± 0.25 | -0.169 ± 0.26
ACATTTGTTGATACAACCATAAAATGATAATTACACCCATAAATTGATAATTATCACACCCATAAATTGATATTGCCTCTTCATGCAGATTTGAACAGTAAGTTTACGACATTTTCAGCACCGACAC | 1.32 ± 0.14 | -0.604 ± 0.37
ACATTTGTTGATACAACCATAAAATGATAATTACACCCATAAATTGATAATTATCACACCCATAAATTGATATTGCCTCTTCATGCAGATTTGAACAGTTTCAAATGCTGATTTTCAGCACCGACAC | 0.372 ± 0.19 | 0.29 ± 0.31
ACATTTGTTGATACAACCATAAAATGATAATTACACCCATAAATTGATAATTATCACACCCATAAATTGATATTGCCTCTTCATGGTCTAAACTTCAGTAAGTTTACGACATTTTCAGCACCGACAC | 1.44 ± 0.19 | -0.93 ± 0.4
ACATTTGTTGATACAACCATAAAATGATAATTACACCCATAAATTGATAATTATCACACCCATAAATTGATATTGCCTCTTCATGGTCTAAACTTCAGTCCTGGGCATCAATTTTCAGCACCGACAC | -0.163 ± 0.029 | 0.135 ± 0.16
ACATTTGTTGATACAACCATAAAATGATAATTACACCCATAAATTGATAATTATCACACCCATAAATTGATATTGCCTCTTCATGGTCTAAACTTCAGTTTCAAATGCTGATTTTCAGCACCGACAC | 0.262 ± 0.23 | 0.164 ± 0.26
ACATTTGTTGATACAACCATAAAATGATAATTACACCCATAAATTGATAATTATCACACCCATAAATTGATATTGCCTCTTCATGTGAGCCCAGGCAGTAAGTTTACGACATTTTCAGCACCGACAC | 2.37 ± 0.34 | -1.91 ± 0.27
ACATTTGTTGATACAACCATAAAATGATAATTACACCCATAAATTGATAATTATCACACCCATAAATTGATATTGCCTCTTCATGTGAGCCCAGGCAGTCCTGGGCATCAATTTTCAGCACCGACAC | 0.0484 ± 0.15 | -0.116 ± 0.3
ACATTTGTTGATACAACCATAAAATGATAATTACACCCATAAATTGATAATTATCACACCCATAAATTGATATTGCCTCTTCTTTGCTCACGCATCTAGTCGGTCCACGTTTGGTTCGCACCGACAC | -0.129 ± 0.28 | -0.231 ± 0.37
ACATTTGTTGATACAACCATAAAATGATAATTACACCCATAAATTGATAATTATCACACCCATAAATTGATATTGCCTCTTTATGCAGGACGACGTACGCGTTCCATATAAACCTGTGCACCGACAC | -0.104 ± 0.19 | 0.021 ± 0.25
ACATTTGTTGATACAACCATAAAATGATAATTACACCCATAAATTGATAATTATCACACCCATAAATTGATATTGCCTCTTTGTGAGCGGATAACAAGATCATAGTCAGACCAACATGCACCGACAC | -0.434 ± 0.17 | -0.26 ± 0.07
